Laboratory results as given in patent US20200010567A1 (NEURIMMUNE, published 2020).

Tests used:
[1] = biological target: T1, BSA-coupled (GP)15 DPR protein peptide (bovine, conjugated via a bifunctional linker (SMCC) to bovine serum albumin); assay: Western blot, BSA-coupled peptide
T1 construct: also called BSA-(GP)15
Experimental: (§1) Resolved proteins were then electroblotted (Novex® Semi-Dry Blotter, 1 h, 25V) on methanol-activated PVDF membranes (Immobilon®-P Transfer Membrane, Merck & Cie, Schaffhausen, Switzerland) by the use of Novex® NuPAGE® transfer buffer 2× (Life Technologies Europe B.V., Zug, Switzerland). Non-specific binding sites were blocked overnight at 4° C. (or alternatively for 1 h at room temperature) with PBS/0.1% Tween®-20 containing 2% BSA (Sigma-Aldrich, Buchs, Switzerland) (PBST). […] Membranes were washed three times in PBST for 15 min at RT and then incubated with a donkey anti-human IgG Fcγ-specific antibody conjugated with HRP (1:20000 or 1:10000 dilution, Jackson ImmunoResearch Laboratories, Inc., West Grove, USA) for 1 h at room temperature. Antibody binding was determined by membrane development using ECL and ImageQuant 350 detection (GE Healthcare, Otelfingen, Switzerland).
(§2) The binding specificity of the human-derived antibodies to BSA-coupled C9orf72 dipeptide repeat proteins (GA)₁₅, (GP)₁₅, (GR)₁₅, (PA)₁₅ and (PR)₁₅ was determined by Western blot analysis.

[2] = biological target: T2, BSA-coupled (PA)15 DPR protein peptide (bovine, UniProt P02769 25-607, conjugated via a bifunctional linker (SMCC) to bovine serum albumin); assay: Western blot, BSA-coupled peptide
T2 construct: also called BSA-(PA)15
T2 sequence (peptide, as listed by the source limits assumed, chain 1 of 2): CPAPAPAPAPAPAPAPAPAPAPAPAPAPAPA
T2 sequence (P02769 25-607 limits assumed, chain 2 of 2): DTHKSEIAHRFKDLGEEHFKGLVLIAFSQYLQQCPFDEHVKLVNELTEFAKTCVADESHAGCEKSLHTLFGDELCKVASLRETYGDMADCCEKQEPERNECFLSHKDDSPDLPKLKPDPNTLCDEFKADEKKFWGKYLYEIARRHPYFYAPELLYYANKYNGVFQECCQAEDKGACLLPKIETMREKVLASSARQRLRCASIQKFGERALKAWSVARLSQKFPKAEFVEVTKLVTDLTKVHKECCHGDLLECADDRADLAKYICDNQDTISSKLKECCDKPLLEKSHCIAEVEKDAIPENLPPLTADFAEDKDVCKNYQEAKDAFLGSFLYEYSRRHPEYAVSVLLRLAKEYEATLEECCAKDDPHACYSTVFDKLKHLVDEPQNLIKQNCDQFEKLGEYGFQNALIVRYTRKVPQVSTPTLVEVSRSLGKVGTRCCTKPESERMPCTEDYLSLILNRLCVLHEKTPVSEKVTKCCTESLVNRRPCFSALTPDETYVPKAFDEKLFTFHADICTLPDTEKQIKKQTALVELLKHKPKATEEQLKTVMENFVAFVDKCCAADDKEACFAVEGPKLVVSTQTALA
Experimental: as §1, §2

GR2: H-(GR)2HHHHHH-NH2 = biological target: T3, GR2: H-(GR)2HHHHHH-NH2; assay: indirect ELISA, His-tagged peptide coated at 50 ug/ml, antibody titrated [also D00026 FIG. 7L]
T3 peptide: H-GRGRHHHHHH-NH2
Experimental: 96-well microplates (Corning Incorporated, Corning, USA) were coated with dipeptide repeat protein peptides at a concentration of 50 μg/ml in coating buffer (15 mM Na₂CO₃, 35 mM NaHCO₃, pH 9.42). Non-specific binding sites were blocked for 1 h at room temperature with PBS/0.1% Tween®-20 containing 2% BSA (Sigma-Aldrich, Buchs, Switzerland). Primary antibodies were diluted to the indicated concentrations and incubated 1 h at room temperature, followed by incubation with a donkey anti-human IgG Fcγ-specific antibody conjugated with HRP (Jackson ImmunoResearch Laboratories, Inc., West Grove, USA). Binding was determined by measurement of HRP activity in a standard colorimetric assay. EC₅₀ values were estimated by non-linear regression using GraphPad Prism software (San Diego, USA).
High affinity binding was detected for poly-GA DPRs harboring 10 or 20 (GA)-repeats, reflected in an EC₅₀ in the subnanomolar or low nanomolar range (FIGS. 7A, 7C-7I).

GR5: H-(GR)5HHHHHH-NH2 = biological target: T4, GR5: H-(GR)5HHHHHH-NH2; assay: indirect ELISA, coated His-tagged peptide
T4 peptide: H-GRGRGRGRGRHHHHHH-NH2
How it was run: (§3)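 Antibodies at graded concentrations bound for 1 h at room temperature to wells carrying 50 μg/ml His-tagged repeat peptide (pH 9.42 carbonate coating, 2% BSA block). Bound IgG read colorimetrically via HRP anti-human Fcγ; EC₅₀ estimated by non-linear regression.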

GR20: H-(GR)20HHHHHH-NH2 = biological target: T5, GR20: H-(GR)20HHHHHH-NH2 (C-terminal amide); assay: indirect ELISA, coated His-tagged peptide
T5 peptide: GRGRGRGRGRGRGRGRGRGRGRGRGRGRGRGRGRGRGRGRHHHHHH
How it was run: as §3

GR4: H-(GR)4HHHHHH-NH2 = biological target: T6, GR4: H-(GR)4HHHHHH-NH2; assay: indirect ELISA, coated His-tagged peptide
T6 peptide: H-GRGRGRGRHHHHHH-NH2
How it was run: as §3

PR10: H-(PR)10HHHHHH-NH2 = biological target: T7, PR10: H-(PR)10HHHHHH-NH2 (C-terminal amide); assay: indirect ELISA, coated His-tagged peptide
T7 peptide: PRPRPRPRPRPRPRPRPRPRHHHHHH
How it was run: as §3

GP3: H-(GP)3HHHHHH-NH2 = biological target: T8, GP3: H-(GP)3HHHHHH-NH2; assay: indirect ELISA, His-tagged peptide coated at 50 ug/ml, antibody titrated [also D00027 FIG. 7N]
T8 peptide: H-GPGPGPHHHHHH-NH2
Source text: In brief, dipeptide repeat proteins were synthesized and purified by Schafer-N (Copenhagen, Denmark): GA₂₀: H-(GA)₂₀HHHHHH-NH₂; GA₁₀: H-(GA)₁₀HHHHHH-NH₂; GA₆: H-(GA)₆HHHHHH-NH₂; GA₅: H-(GA)₅HHHHHH-NH₂; GA₄: H-(GA)₄HHHHHH-NH₂; GA₃: H-(GA)₃HHHHHH-NH₂; GA₂: H-(GA)₂HHHHHH-NH₂; GP₂₀: H-(GP)₂₀HHHHHH-NH₂; GP₁₀: H-(GP)₁₀HHHHHH-NH₂; GP₆: H-(GP)₆HHHHHH-NH₂; GP₅: H-(GP)₅HHHHHH-NH₂; GP₄: H-(GP)₄HHHHHH-NH₂; GP₃: H-(GP)₃HHHHHH-NH₂; GP₂: H-(GP)₂HHHHHH-NH₂. GR₂₀: H-(GR)₂₀HHHHHH-NH₂; GR₁₀: H-(GR)₁₀HHHHHH-NH₂; GR₆: H-(GR)₆HHHHHH-NH₂; GR₅: H-(GR)₅HHHHHH-NH₂; GR₄: H-(GR)₄HHHHHH-NH₂; GR₃: H-(GR)₃HHHHHH-NH₂; GR₂: H-(GR)₂HHHHHH-NH₂; PA₂₀: H-(PA)₂₀HHHHHH-NH₂; PA₁₀: H-(PA)₁₀HHHHHH-NH₂; PA₆: H-(PA)₆HHHHHH-NH₂; PA₅: H-(PA)₅HHHHHH-NH₂; PA₄: H-(PA)₄HHHHHH-NH₂; PA₃: H-(PA)₃HHHHHH-NH₂; PA₂: H-(PA)₂HHHHHH-NH₂; PR₂₀: H-(PR)₂₀HHHHHH-NH₂; PR₁₀: H-(PR)₁₀HHHHHH-NH₂; PR₆: H-(PR)₆HHHHHH-NH₂; PR₅: H-(PR)₅HHHHHH-NH₂; PR₄: H-(PR)₄HHHHHH-NH₂; PR₃: H-(PR)₃HHHHHH-NH₂; PR₂: H-(PR)₂HHHHHH-NH₂. 96-well microplates (Corning Incorporated, Corning, USA) were coated with dipeptide repeat protein peptides at a concentration of 50 μg/ml in coating buffer (15 mM Na₂CO₃, 35 mM NaHCO₃, pH 9.42). Non-specific binding sites were blocked for 1 h at room temperature with PBS/0.1% Tween®-20 containing 2% BSA (Sigma-Aldrich, Buchs, Switzerland). Primary antibodies were diluted to the indicated concentrations and incubated 1 h at room temperature, followed by incubation with a donkey anti-human IgG Fcγ-specific antibody conjugated with HRP (Jackson ImmunoResearch Laboratories, Inc., West Grove, USA). Binding was determined by measurement of HRP activity in a standard colorimetric assay. EC₅₀ values were estimated by non-linear regression using GraphPad Prism software (San Diego, USA).

PA10: H-(PA)10HHHHHH-NH2 = biological target: T9, PA10: H-(PA)10HHHHHH-NH2 (C-terminal amide); assay: indirect ELISA, coated His-tagged peptide
T9 peptide: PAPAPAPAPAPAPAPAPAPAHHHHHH
How it was run: as §3

PA5: H-(PA)5HHHHHH-NH2 = biological target: T10, PA5: H-(PA)5HHHHHH-NH2; assay: indirect ELISA, coated His-tagged peptide
T10 peptide: H-PAPAPAPAPAHHHHHH-NH2
How it was run: as §3

T1 sequence (peptide, as listed by the source limits assumed, chain 1 of 2): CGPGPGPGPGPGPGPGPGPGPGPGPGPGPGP
T1 sequence (P02769 25-607 limits assumed, chain 2 of 2): as the sequence (P02769 25-607 limits assumed, chain 2 of 2) above

B1: NI-308.6B11 (antibody, V domains shown)
VH: EVQLVQSGAEVKRPGASVKVSCKVSGYTLTELSMHWVRQAPGKGLEWMGGFDPEDGETVYAQKFQGRVTMTEDTSTDTAYMELSSLRSEDTALYHCATYGSSWHWNEGNEGSYYFDYWGQGTLVTVSS
VL: CDIQMTQSPSSLSASVGDRVTITCQASQDISIYLNWYQQKPGKAPKLLIYDASNLETGVPSRFSGSGSGTDFTFTISGLQPEDVARYYCQQYDDLPITFGQGTRLEIK
notes: Recombinant complete human IgG1, kappa
B1: no binding (tested: 10 nM or 100 nM) [1]; no binding (tested: 10 nM or 100 nM) [2]; no binding (tested: about 4x10^5 pM (last point)) (GR2: H-(GR)2HHHHHH-NH2). For the same binder, the EC50 (GR5: H-(GR)5HHHHHH-NH2) was 0.47 nM, the EC50 (GR20: H-(GR)20HHHHHH-NH2) was 0.25 nM and the EC50 (GR4: H-(GR)4HHHHHH-NH2) was 13.2 nM.

B2: NI-308.24E11 (antibody, V domains shown)
VH: QVQLQESGPGLVKPSETLSLTCTVSTTSLRSYFWSWIRQPPGKGLEWIGYVYYSGSTIYNPSLKNRVTISIDTSKNQFSLNLRSVTAADTAMYFCARGVPAETDARDFPPYYFDHWGQGTLVTVSS
VL: CDIQLTQSPSSLSASVGNRITFTCQASQDIRYYLNWYQQKPGKAPKLLIYDVSNLDTGVPPRFSGSGSGTNFTFTISSLQPEDIAVYYCQQYEGLPVTFGGGTKVEIK
notes: as for B1
B2 showed an EC50 (PR10: H-(PR)10HHHHHH-NH2) of 31.7 nM.

B3: NI-308.46E9 (antibody, V domains shown)
VH: QVQLQESGPGLVKPSETLSLTCTVSGASISGSTYYWGWIRQPPGKGLEYIGRIYYSGSTYYNPSLKSRATISVDTSKNQLSLTLSSVTAADTAVYYCVRPFYAGSGNSPFDYWGQGTLVTVSS
VL: CEIVLTQSPATVSVSPGERATLSCRASQSVSTNLAWYQQKPGQPPRLLIYGASTRATGIPARFSGSGSGAEFTLTISSLQSEDFVVYYCQQYNNWPPAFGGGTKVEIK
notes: as for B1
B3: no binding (tested: about 4x10^5 pM (last point)) (GP3: H-(GP)3HHHHHH-NH2).

B4: NI-308.4M1 (antibody, V domains shown)
VH: EVQLVETGGGVVQPGGSLRLSCEASGFTIGTYAMHWVRQFPGKGLDWVAVISFDGTTEYYTDAVKGRFTISRDNAKNTLYLQMNYLRGDDTAIYFCARDFTSSGETGSWTQVPDLWGQGTLVTVSS
VL: CEIVMTQSPATLSLSPGERATLSCRASQSVTKYLAWYQQKPGQAPRLLIYDVSYRAAGTPARFSGSGSGTDFTLTISSLEPEDFAVYYCHQRSSWPPVTFGGGTKVEIK
notes: as for B1
Work on B4 yielded an EC50 (PA10: H-(PA)10HHHHHH-NH2) of 0.06 nM and an EC50 (PA5: H-(PA)5HHHHHH-NH2) of 26.9 nM.
